From paper doi:10.1101/488536, “The Ca^2+ sensor protein CMI1 fine tunes root development, auxin distribution and responses” (bioRxiv, 2018)

Tests used:
GST-ICR1 = target: T1, GST-ICR1 (Arabidopsis, UniProt Q8LE98 1-344); assay: pull-down; GST-ICR1 (1.2 μg) or GST (0.4 μg) on Glutathione sepharose, 0.5 μg His6-CMI1; 20 mM Tris-HCl pH 7.5, 5 mM CaCl2, 0.1 mg/mL BSA, 200 mM NaCl, 1% Triton X-100, RT; wash with 1 M NaCl; conditions: both partners purified
T1 construct: ICR1, Arabidopsis; source: E. coli Rosetta (DE3), purified (Glutathione sepharose)
T1 sequence (looked up): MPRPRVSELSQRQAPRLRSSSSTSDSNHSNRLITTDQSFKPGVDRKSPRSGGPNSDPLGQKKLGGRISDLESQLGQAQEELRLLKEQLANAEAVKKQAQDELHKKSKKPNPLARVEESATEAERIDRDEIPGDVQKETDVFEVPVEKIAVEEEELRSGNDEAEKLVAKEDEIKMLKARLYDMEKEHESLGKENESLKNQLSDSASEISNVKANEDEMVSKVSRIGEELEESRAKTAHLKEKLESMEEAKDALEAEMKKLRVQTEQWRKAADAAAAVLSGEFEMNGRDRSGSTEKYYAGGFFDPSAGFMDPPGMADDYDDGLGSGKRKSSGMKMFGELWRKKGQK

His6-ICR1 = target: T2, His6-ICR1 (Arabidopsis, UniProt Q8LE98 1-344); assay: co-IP; His6-CMI1 and His6-ICR1, 1 μg each, in 300 μL Ca^2+ reaction buffer (20 mM Tris-HCl pH 7.5, 5 mM CaCl2, 0.1 mg/mL BSA, 200 mM NaCl, 1% Triton X-100), RT; anti-CMI1 antibodies and Protein A beads; blot with anti poly-His; conditions: both partners purified
T2 construct: ICR1, Arabidopsis; also called His-ICR1; source: E. coli Rosetta (DE3), purified (Ni-NTA)
T2 sequence (looked up): T1 sequence (looked up)

B1: His6-CMI1 (natural protein, Arabidopsis, UniProt O81831 1-130, looked up)
chain: MASPKSPTRPTQQNPQPNFHDFLPTMAGNLGGEGLIGELCNGFELLMDREKGVITFESLRRNAAAVLGLGDLTDEDVRCMIKEGDFDCDGALNQMEFCVLMFRLSPDLMEASRCLVTEVIEEEFGFTRRH
notes: CMI1, Arabidopsis, At4g27280; also called His-CMI1; source: E. coli Rosetta (DE3), purified (Ni-NTA)
binding result (GST-ICR1): binds
binding result (His6-ICR1): binds
